Measured values taken from PMC6689063.

Molecular target: T1, AztC from Paracoccus denitrificans (WT PdAztC), solute binding protein of the AztABC zinc transporter (Paracoccus denitrificans PD1222) (UniProt A1B2F3)
T1 sequence: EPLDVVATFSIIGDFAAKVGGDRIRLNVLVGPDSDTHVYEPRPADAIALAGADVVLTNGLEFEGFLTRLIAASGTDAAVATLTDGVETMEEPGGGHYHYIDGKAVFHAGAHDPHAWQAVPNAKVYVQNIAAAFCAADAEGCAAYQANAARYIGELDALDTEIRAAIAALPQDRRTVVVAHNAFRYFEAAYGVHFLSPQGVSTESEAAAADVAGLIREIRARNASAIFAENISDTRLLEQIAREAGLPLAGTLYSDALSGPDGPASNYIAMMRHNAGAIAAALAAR

B1: ΔS1 PdAztD (H124A/H167A/H218A) (natural protein)
chain: QDHDHDHEDVTLYRVFVGDHEKGQVTAFDLAEPDHRWTFPTTGQVKLYSVAGGAVVAAVQSDADTVQFIRSGISFHDHGDHRDIEVGDPAAIDASLTGPRPFALVEHDGKVVLNYDQGGYAEILDGHALAEGKAEPGRFPQARAHAGFVAPLGGNWLSTVASDEKVEGDASVPRLGLQAFDAEGNPAGNLATCTGIAGEAFSGAYLAAGCKEGVLTVKAGANGSEYKLLPYPADLPQGVTTGTLLGSTGIQVFLGNYGPDGLVVIDPVDEPHYRYIKLPFRRVDFALDPAKPSTGYVLTEDGSLHRIDLLKAEIVASAKVTEPYSMDGHWNDPRPRIAMAGDEIVVTDPNAGLVRRIATEDLSERGTVPVEGKPYNIAVTGGSGVTH
A zinc transferred to AztC after incubation of 100 μM each protein with 1 mM EDTA, anion exchange chromatography and zinc quantitation by ICP-OES (equivalent of zinc) of 1 was found for B1 in this work.
